Tests used:
[1] = target: T1, AF647-p53 (p53-SNAP labeled with AF647) (human, UniProt P04637 1-393); assay: EMSA; complexes at low nM tetramer; EMSA: 25 mM HEPES pH 7.9, 50 mM KCl, 2.5 mM MgCl2, 1 mM EDTA, 10% glycerol, 0.1% NP-40, 1 mM DTT, 0.05 mg/mL BSA, room temp 30 min; TIRF: 25 mM Tris pH 7.9, 50; details: protein: recombinant; tags: N-terminal His; C-terminal SNAP tag with AlexaFluor647; chain copies: 4; label: 5' 32P on reverse strand; blunt
[2] = target: T1, AF647-p53 (p53-SNAP labeled with AF647); assay: single-molecule TIRF; apparent upper limit (<=), koff 1.0 s-1, kon(obs) 0.0188 s-1; EMSA: 25 mM HEPES pH 7.9, 50 mM KCl, 2.5 mM MgCl2, 1 mM EDTA, 10% glycerol, 0.1% NP-40, 1 mM DTT, 0.05 mg/mL BSA, room temp 30 min; TIRF: 25 mM Tris pH 7.9, 50; details: protein: recombinant; tags: N-terminal His; C-terminal SNAP tag with AlexaFluor647; chain copies: 4; label: 5' biotin on forward strand; 5' AF647 on reverse strand; 5' overhang 24 nt and 3' overhang 1 nt on forward strand as printed
[3] = target: T1, AF647-p53 (p53-SNAP labeled with AF647); assay: EMSA; sub-nM affinity, assuming tetramer; EMSA: 25 mM HEPES pH 7.9, 50 mM KCl, 2.5 mM MgCl2, 1 mM EDTA, 10% glycerol, 0.1% NP-40, 1 mM DTT, 0.05 mg/mL BSA, room temp 30 min; TIRF: 25 mM Tris pH 7.9, 50; details: protein: recombinant; tags: N-terminal His; C-terminal SNAP tag with AlexaFluor647; chain copies: 4; label: 5' 32P on reverse strand; blunt

T1 sequence (P04637 whole entry): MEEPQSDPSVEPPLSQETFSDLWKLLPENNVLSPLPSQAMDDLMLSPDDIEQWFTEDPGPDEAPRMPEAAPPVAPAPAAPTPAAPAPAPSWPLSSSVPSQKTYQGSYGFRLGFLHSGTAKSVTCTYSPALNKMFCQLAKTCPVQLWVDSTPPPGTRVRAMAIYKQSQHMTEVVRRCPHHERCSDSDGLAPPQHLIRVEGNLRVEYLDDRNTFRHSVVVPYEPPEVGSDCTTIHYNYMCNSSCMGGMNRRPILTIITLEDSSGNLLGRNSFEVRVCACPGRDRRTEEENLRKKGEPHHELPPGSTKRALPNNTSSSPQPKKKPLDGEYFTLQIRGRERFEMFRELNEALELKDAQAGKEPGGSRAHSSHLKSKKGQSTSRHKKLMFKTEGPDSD

B1: random DNA (EMSA) (dsDNA)
DNA 1: CGTTCCTAATCGGGTAGGGGCTGACACGAATA
DNA 2: TATTCGTGTCAGCCCCTACCCGATTAGGAACG
**Q.** Does B1 bind [1]?
**A.** binds

B2: mutant half site DNA (single molecule) (dsDNA)
DNA 1: CGCGTTCATGGTAGAGTCGTGGACTAGAGCGAACATGTCTTTCAAAGGCGGCGTCG
DNA 2: GACGCCGCCTTTGAAAGACATGTTCGCTCTA
**Q.** How did the Kd [2] turn out when B2 was run?
**A.** < 13 nM

B3: wild type DNA (EMSA) (dsDNA)
DNA 1: TAGAGCGAACATGTCTAAGCATGCTGGCGTCG
DNA 2: CGACGCCAGCATGCTTAGACATGTTCGCTCTA
**Q.** How did the Kd [3] turn out when B3 was run?
**A.** < 1 nM

Source: article PMC7528078, “Single molecule studies reveal that p53 tetramers dynamically bind response elements containing one or two half sites”
